One may read the stoichiometry N as the number of molecules, sites or subunits per partner or assembly. The term Kd denotes the concentration at which binding is half-saturated. A higher Kd goes with weaker binding.

Assay [1] deals with Mom (bacteriophage Mu), untagged, purified (bacteriophage Mu) (UniProt P06018). Nature of the assay: cross-linking.
For assay [2] the target is unchanged. Nature of the assay: SEC. For orientation: Size exclusion chromatography separates by hydrodynamic size, large species first.
The target of a further assay is T1, Mom (Escherichia phage Mu, UniProt P06018).
T1 sequence (P06018 12-241): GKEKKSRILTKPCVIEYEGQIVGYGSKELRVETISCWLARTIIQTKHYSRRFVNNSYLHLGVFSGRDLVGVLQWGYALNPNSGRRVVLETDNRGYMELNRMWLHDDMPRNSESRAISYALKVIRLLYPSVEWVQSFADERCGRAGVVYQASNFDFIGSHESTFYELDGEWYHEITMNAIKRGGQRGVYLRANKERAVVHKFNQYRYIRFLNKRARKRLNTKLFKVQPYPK
Nature of the assay: microscale thermophoresis, fluorescently labelled Mom. In kind it is binding.

“Mom (bacteriophage Mu), untagged, purified (from UniProt P06018 2-241) (enzyme)”: the stoichiometry N in assay [1] and in assay [2] was 2 throughout.

For `CC(=O)SCCNC(=O)CCNC(=O)[C@H](O)C(C)(C)COP(=O)(O)OP(=O)(O)OC[C@H]1O[C@@H](n2cnc3c(N)ncnc32)[C@H](O)[C@@H]1OP(=O)(O)O` [acetyl CoA], the dissociation constant Kd at Mom is around 49 µM.

These data come from paper PMC7261163 (Nucleic Acids Research, 2020).
